# Experimental data from PMC11665464, “The molecular chaperone ALYREF promotes R-loop resolution and maintains genome stability”.
# Target: ALYREF-ΔRRM (human, UniProt Q86V81 1-257, del108-179)
# Test: EMSA; 35 mM Tris-HCl pH 7.5, 1 mM DTT, 100 ug/ml BSA, 1 mM MgCl2, 100 mM KCl, 10 min at 30 C; 5 nM nucleic acid; gel at 4 C
# Conditions: protein: recombinant; tags: His6; label: 32P; three-strand 5' RNA flap; RNA and DNA2 share the complement on DNA1
binder,measurement,value
"5' RNA-DNA flap (R-Flap, migratable R-loop mimic) (mixed) DNA 1: ACGCTGCCGAATTCTACCAGTGCCTTGCTAGGACATCTTTGCCCACCTGGTGGTGGGACC DNA 2: GGTCCCACCACCAGGTGGGCAAAGATGTCCCAGCAAGGCACTGGTAGAATTCGGCAGCGT RNA: GGUCCCACCACCAGGUGGGCAAAGAUGUCC",binding result,binds
